Measurements taken from publication PMC8011978.

How the values were obtained:
[1] = molecular target: LAdV-2 protein LH3 (lizard atadenovirus LAdV-2); assay: cryo-EM structure
[2] = molecular target: LAdV-2 penton base protein (lizard atadenovirus LAdV-2); assay: cryo-EM structure

Substance | stoichiometry N [1] | stoichiometry N [2]
LAdV-2 protein LH3 (natural protein) | 3 | 
LAdV-2 penton base protein (natural protein) |  | 5
